Test results: patent US20230331799A1 (XILIO DEVELOPMENT, published 2023)

Assays:
AK564 [1] = biological target: T1, AK564 (human, UniProt Q13261 31-96); experiment: SPR (Biacore 8K), multi-cycle kinetics, human CD122 immobilised by amine coupling, construct as analyte, 25 C
T1 construct: also called IL-15 masked non-cleavable AK564

AK564 [2] = biological target: T1, AK564; experiment: SPR (Biacore 8K), multi-cycle kinetics, human CD215 immobilised by amine coupling, construct as analyte, 25 C

B1: Recombinant Human IL-2 R beta Protein (CD122) (receptor, UniProt P14784 27-239, looked up)
chain: AVNGTSQFTCFYNSRANISCVWSQDGALQDTSCQVHAWPDRRRWNQTCELLPVSQASWACNLILGAPDSQKLTTVDIVTLRVLCREGVRWRVMAIQDFKPFENLRLMAPISLQVVHVETHRCNISWEISQASHYFERHLEFEARTLSPGHTWEEAPLLTLKQKQEWICLETLTPDTQYEFQVRVKPLQGEFTTWSPWSQPLAFRTKPAALGKD
notes: also called human CD122
**Q.** Does B1 bind (AK564 [1])?
**A.** no binding (tested: Top 500 nM, 2x dilution)

B2: Recombinant Human IL-15R alpha Fc chimera Protein (CD215) (Fc fusion, UniProt Q13261 31-205, looked up)
chain: ITCPPPMSVEHADIWVKSYSLYSRERYICNSGFKRKAGTSSLTECVLNKATNVAHWTTPSLKCIRDPALVHQRPAPPSTVTTAGVTPQPESLSPSGKEPAASSPSSNNTAATTAAIVPGSQLMPSKSPSTGTTEISSHESSHGTPSQTTAKNWELTASASHQPPGVYPQGHSDTT
notes: also called human CD215; Fc part of the bought chimera not given
**Q.** Does B2 bind (AK564 [2])?
**A.** no binding (tested: Top 40 nM, 2x dilution)
